Laboratory results as given in patent US6518061.

How the values were obtained:
[1] = target: IL-13 receptor (IL-13R) on human tumor cells (human); test: cell-based or functional assay
[2] = target: IL-13 receptor (IL-13R) on human tumor cells (human); test: ^125I-IL-13 displacement by unlabeled IL-13 on HL-RCC cells, LIGAND/Scatchard analysis
[3] = target: IL-13 receptor (IL-13R) on human tumor cells (human); test: radioligand (0.64 nM) binding to PM-RCC cells, 4 C, 2 h
[4] = target: IL-13 receptor (IL-13R) on human tumor cells (human); test: ^125I-IL-13 displacement by unlabeled IL-13 on PM-RCC cells, LIGAND/Scatchard analysis
[5] = target: IL-13 receptor (IL-13R) on human tumor cells (human); test: displacement of [^125I]-IL-13 from HL-RCC cells
[6] = target: IL-13 receptor (IL-13R) on human tumor cells (human); test: ^125I-hIL-13 displacement by unlabeled hIL-13 on T-98G glioma cells, LIGAND/Scatchard analysis
[7] = target: IL-13 receptor (IL-13R) on human tumor cells (human); test: displacement of ^125I-IL-13 from WS-RCC and HL-RCC cells by excess unlabeled IL-13
[8] = target: IL-13 receptor (IL-13R) on human tumor cells (human); test: ^125I-hIL-13 displacement by unlabeled hIL-13 on A-172 glioma cells, LIGAND/Scatchard analysis
[9] = target: IL-13 receptor (IL-13R) on human tumor cells (human); test: ^125I-hIL-13 displacement by unlabeled hIL-13 on U-373 MG glioma cells, LIGAND/Scatchard analysis
[10] = target: IL-13 receptor (IL-13R) on human tumor cells (human); test: ^125I-IL-13 displacement by unlabeled IL-13 on MA-RCC cells, LIGAND/Scatchard analysis
[11] = target: IL-13 receptor (IL-13R) on human tumor cells (human); test: ^125I-hIL-13 displacement by unlabeled hIL-13 on U-251 MG glioma cells, LIGAND/Scatchard analysis
[12] = target: IL-13 receptor (IL-13R) on human tumor cells (human); test: ^125I-hIL-13 displacement by unlabeled hIL-13 on SNB-19 glioma cells, LIGAND/Scatchard analysis
[13] = target: IL-13 receptor (IL-13R) on human tumor cells (human); test: ^125I-IL-13 displacement by unlabeled IL-13 on WS-RCC cells, LIGAND/Scatchard analysis

Chain of IL-13 receptor (IL-13R) on human tumor cells (human) (Q14627 whole entry): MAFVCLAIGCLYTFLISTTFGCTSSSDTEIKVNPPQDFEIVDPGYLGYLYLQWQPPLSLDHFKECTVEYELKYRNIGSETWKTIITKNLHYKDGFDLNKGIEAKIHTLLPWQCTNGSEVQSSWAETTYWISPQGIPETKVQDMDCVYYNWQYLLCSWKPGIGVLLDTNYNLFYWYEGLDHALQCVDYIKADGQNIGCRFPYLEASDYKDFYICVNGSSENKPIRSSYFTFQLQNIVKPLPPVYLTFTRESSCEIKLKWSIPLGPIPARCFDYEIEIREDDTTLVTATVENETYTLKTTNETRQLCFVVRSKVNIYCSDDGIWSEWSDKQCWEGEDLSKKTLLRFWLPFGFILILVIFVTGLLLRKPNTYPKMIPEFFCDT

Kd [2]	cpm specifically bound [3]	Kd [4]	IC50 [5]	Kd [6]	% displacement of total binding [7]	Kd [8]	Kd [9]	Kd [10]	Kd [11]	Kd [12]	Kd [13]	Substance	IC50, cytotoxicity on several glioma cell lines [1]
												hIL-13-PE4E (from UniProt P35225 33-146; P11439 26-638)	< 0.1 ng/mL
3.1 nM	182000 cpm	0.394 nM	20 nM	1 nM	85%	1.6 nM	1.8 nM	0.128 nM	2.1 nM	1.4 nM	0.247 nM	recombinant human interleukin 13 (IL-13) (from UniProt P35225 33-146) (ligand)	
